The record followed here is the nanobody polyreactivity screen of Harvey et al. (2022).

The series can be described thus: yeast display, Sf9 membrane polyspecificity reagent, FACS + sequencing; frameworks hold sequencing errors. In outline:
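Synthetic nanobody libraries on Saccharomyces cerevisiae BJ5465 were galactose-induced for 36–48 hours, stained 1 hour at 4 °C with 10% biotinylated, detergent-solubilized Sf9 membrane reagent and enriched on streptavidin microbeads. FACS then separated cells into low and high (top ~1%) gates by anti-HA (expression) and streptavidin (reagent binding) fluorescence. Genes were colony-PCR amplified, MiSeq 2 × 250 sequenced and CDR-length filtered. A clone's polyreactivity label is that of its gate of origin.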
“QVQLVESGGGLVQAGGSLRLSCAASGSTFTWNAMGWYRQAPGKERELVASITWGGGGTYYADSVKGRFTISRDNAKNTVYLQMNSLKPEDTAVYYCAAGLWSPAYRGGYYYWGQGTQVTVSS”: the “polyreactivity (PSR sort gate)” value is recorded as “low polyreactivity”. Consider “QVQLVESGGGLVQAGGSLRLSCAASGSTFTWYAMGWYRQAPGKERELVADISYGGRSTYYADSVKGRFTISRDNAKNTVYLQMNSLKPEDTAVYYCAAESIPYYRYDYWGQGTQVTVSS”, for which the “polyreactivity (PSR sort gate)” value was “low polyreactivity”.

Turning to “QVQLVESGGGLVQAGGSLRLSCAASGSTFTYNAMGWYRQAPGKERELVAAISSDGRTYYADSVKGRFTISRDNAKNTVYLQMNSLKPEDTAVYYCAAYFSGLTYGYYVAGYDYWGQGTQVTVSS”, the “polyreactivity (PSR sort gate)” value is reported as “low polyreactivity”. “QVQLVESGGGLVQAGGSLRLSCAASGSTFTYNAMGWYRQAPGKERELVAAITGRGGSTYADSVKGRFTISRDNAKNTVYLQMNSLKPEDTAVYYCAARRPYGYRWHTSVPSLDYWGQGTQVTVSS”: the “polyreactivity (PSR sort gate)” value was “low polyreactivity”. Under “QVQLVESGGGLVQAGGSLRLSCAASGSTFTYNAMGWYRQAPGKERELVASISSGTTTYYADSVKGRFTISRDNAKNTVYLQMNSLKPDDTAVYYCNADIYTWFQIGGYQYDYWGQGTQVTVSS” stands “low polyreactivity”. In the case of “QVQLVESGGGLVQAGGSLRLSCAASGSTFTYNAMGWYRQAPGKERELVASISSGTTTYYADSVKGRFTISRDNAKNTVYLQMNSLKPEDTAVYYCAALVSPDRGYYSYWYIYDYWGQGTQVTVSS”, the “polyreactivity (PSR sort gate)” value is recorded as “low polyreactivity”.

As to “QVQLVESGGGLVQAGGSLRLSCAASGSTFTYNDMGWYRPAPGKERELVATIDSTTRTYYADSVKGRFTISRDNAKNSVYLQMNCLKPEDTAVYYCAADLTWAYFYYLFYRYDYWGQGTKVTVSS”, the “polyreactivity (PSR sort gate)” value is given as “low polyreactivity”.

Take “QVQLVESGGGLVQAGGSLRLSCAASGSTFTYYAMGWYRQAPGKERELVAAIDFSGTSTYYADSVKGRFTISRDNAKNTVYLQMNSLQPEDTAVYYCAASQSWYWGGAQDNGEFGYWGQGTQVTVSS”: the “polyreactivity (PSR sort gate)” value is “low polyreactivity”. In the case of “QVQLVESGGGLVQAGGSLRLSCAASGSTFTYYAMGWYRQAPGKERELVAAISRSGGNTYYADSVKGRFTISRDNAKNTVYLQMNSLKKEDTAVYYCAAYRQVYGFDYWGQGTQVTVSS”, the “polyreactivity (PSR sort gate)” value was “high polyreactivity”. As to “QVQLVESGGGLVQAGGSLRLSCAASGSTFTYYAMGWYRQAPGKERELVAAISRSGGNTYYADSVKGRFTISRDNAKNTVYLQMNSLKPEDTAVYYCAAYRQVYGFDYWGQGTQVTVSS”, the “polyreactivity (PSR sort gate)” value is listed as “high polyreactivity”. As for “QVQLVESGGGLVQAGGSLRLSCAASGSTFTYYAMGWYRQAPGKERELVAAITGRGGRTYYADSVKGRFTISRDNAKNTVYLQMNSLKPEDTAVYYCARYPSSDTYWTKYDYWGQGTQVTVSS”, the “polyreactivity (PSR sort gate)” value was “high polyreactivity”. As for “QVQLVESGGGLVQAGGSLRLSCAASGSTFTYYAMGWYRQAPGKERELVAAITSGGSTYYADSVKGRFTISRDNAKNTVYLQMNSLKPEDTAVYYCNRGSWRYSTMEYWGQGTQVTVSS”, the “polyreactivity (PSR sort gate)” value is listed as “high polyreactivity”. On to “QVQLVESGGGLVQAGGSLRLSCAASGSTFTYYTMGWYRQAPVKERELVAAISTSGGRTYDADSVKGRFTISRDYAKIPVFLQMNSLKPEDTAVYYCAAYSRTYDREFDYWGQGTQVTVSS”, for which the “polyreactivity (PSR sort gate)” value is on record as “high polyreactivity”.

With “QVQLVESGGGLVQAGGSLRLSCAASGSTFVANVMGWYRQAPGKERELVAAINTNGGSTYYADSVKGRFTISRDNAKNTVYLQMNSLKPEDTAVYYCNKAWFRYWYGYWGQGTQVTVSS”, the “polyreactivity (PSR sort gate)” value is recorded as “low polyreactivity”. Take “QVQLVESGGGLVQAGGSLRLSCAASGSTFVDYALGWARQAPGKERELVAAISSSGGSTYYADSVKGRFTISRDTAKNTVYLQMNSLKPEDTAVYYCAARYDRSSKRNYWGQGTQVTVSS”: the “polyreactivity (PSR sort gate)” value was “low polyreactivity”.

For the sequence “QVQLVESGGGLVQAGGSLRLSCAASGSTFVDYAMGWYRQAPGKERELVAAMSSSGGSTYYADSVKGRFTISRDNAKNTVYLQMNSLKPEDTAVYYCAARYDRSSKRNYWGQGTQVTVSS”, the “polyreactivity (PSR sort gate)” value is “low polyreactivity”. For “QVQLVESGGGLVQAGGSLRLSCAASGSTFVFYAMGWSREAPGKERELVAAITISGDITYYADSVKGRFTISRDNAKNTVYLQMNSLKPEDTAVYYWAVDGPIPDLHEYWGQGTQVTVSS”, the “polyreactivity (PSR sort gate)” value is recorded as “low polyreactivity”. As to “QVQLVESGGGLVQAGGSLRLSCAASGSTFVFYAMGWYRLAPGKDRELVAINSGGSTYYADSVKGRFTISRDNAKNTVYLQMNSLKPEDTAVYFCAKDPLRVWRFDYWGQGTQVTVSS”, the “polyreactivity (PSR sort gate)” value is “low polyreactivity”. Consider “QVQLVESGGGLVQAGGSLRLSCAASGSTFVFYAMGWYRQAPGKERELVASISFRGGSTRYADSVKGRFTISRDNAKNTVYLQMNSLKPEDTAVYYCNARPFYRYYYWGQGTQVTVSS”, for which the “polyreactivity (PSR sort gate)” value is on record as “high polyreactivity”. In the case of “QVQLVESGGGLVQAGGSLRLSCAASGSTFVGNAMGWYRQAPGKERELVAGISSGGSSNYADSVKGRFTISRDNAKNTVYLQMNSLKREDTAVYYCNAVPGVGEMDYWGQGTQVTVSS”, the “polyreactivity (PSR sort gate)” value is listed as “low polyreactivity”.

With “QVQLVESGGGLVQAGGSLRLSCAASGSTFVGYAMGWYRLAPGKEREFVAAITRGGSTNYADSVKGRFTISRDNAKNTVYLQMNSLKPEDTAVYYCAARDRREGFNFDYCGQGTQVTVSS”, the “polyreactivity (PSR sort gate)” value is “low polyreactivity”. With “QVQLVESGGGLVQAGGSLRLSCAASGSTFVGYAMVWYRQAPGKERELVAAISRSGGSTYYADSVKGRFTISRDNAKNTVYLQMNSLKPEDTAVYYCAAGARAFDDDFWGQGTQVNVSS”, the “polyreactivity (PSR sort gate)” value was “low polyreactivity”. As for “QVQLVESGGGLVQAGGSLRLSCAASGSTFVHYAMGWYRQAPGKERELVADITTGDITNYADSVKGRFTISRDNAKNTVYLQMNSLKPEDTAVYYCAVDHQNSPFHVGRDEYWGQGTQVTVSS”, the “polyreactivity (PSR sort gate)” value is “low polyreactivity”. On to “QVQLVESGGGLVQAGGSLRLSCAASGSTFVIYAMGLYTQAPGKERELVAAISRRTGSTYYADSVKGRFTISRYNAKNTVYLQMNSLKPEDTAVYYCAADYRYYTKYYGYLTYYYWGQGTQVTVSS”, for which the “polyreactivity (PSR sort gate)” value is listed as “high polyreactivity”. Regarding “QVQLVESGGGLVQAGGSLRLSCAASGSTFVIYGKGWYRQAPGKERELVASISGSGGSTFYADSVKGRFTISRDNAKITVYLEMNSRKPEDTAVYYCAAAVGVGRSGGTYDYWGQGTQVTVSS”, the “polyreactivity (PSR sort gate)” value is “low polyreactivity”. For “QVQLVESGGGLVQAGGSLRLSCAASGSTFVKYDMGWYRQAPGKERELVAAITTTGGSTYYADSVKGRFTISRDNAKNTVYLQMNSLIPEDTAVYYCATLVSASRSRRFGYEYWGQGTQVTVSS”, the “polyreactivity (PSR sort gate)” value is on record as “high polyreactivity”.

In the case of “QVQLVESGGGLVQAGGSLRLSCAASGSTFVLYAMGWYRQAPGKERELVAAINSAGSTNYADSVKGRFTISRDNAKNTVYLQMNSLNPEDTAVYYCAAEYYYSYVDRTYYIYDYWGQGTQVTVSS”, the “polyreactivity (PSR sort gate)” value is on record as “high polyreactivity”. Under “QVQLVESGGGLVQAGGSLRLSCAASGSTFVNNAMGWSREARGKERELVAAIRSSDGRTYYADSVKGRFTISRDKAKNTVYLQMNSLKPEDTAVDYCATAVGTKYRTRIFEYYYWGQGTQVTVSS” stands “high polyreactivity”; under “QVQLVESGGGLVQAGGSLRLSCAASGSTFVNNAMGWYRQAPGKERELVASITVGGSTYYADSVKGRFTISRDNAKNTVYLQMNSLKPEDTAVYYCNVQYSYYASDYDYWGQGTQVTVSS”, “low polyreactivity”; under “QVQLVESGGGLVQAGGSLRLSCAASGSTFVNYAMGWYRQAPGKERELVAAITRSGGNTYYADSVKGRFTISRDNAKNTVYLQMNSLKPEDTAVYDCAASFKQDIWYYYWGQGTQVTVSS”, “high polyreactivity”. Take “QVQLVESGGGLVQAGGSLRLSCAASGSTFVPKDMGWNRQAPGKERELVAAISYSGGSTYYADSVKGRFTISRDNAKNTVYLQLNSLKPEDTAVDYCNAEGWYYLTEYGYWGQGTQVTVSS”: the “polyreactivity (PSR sort gate)” value is reported as “low polyreactivity”. In the case of “QVQLVESGGGLVQAGGSLRLSCAASGSTFVPNAMGWYRQAPGKERELVAALTFSGGTTYYADSVKGRFTISRDNAKNTVYLQMNSLKPEGTAVYYCAADYFSNLWWSGHAWRYYYWGQGTQVTVSS”, the “polyreactivity (PSR sort gate)” value was “low polyreactivity”. On to “QVQLVESGGGLVQAGGSLRLSCAASGSTFVPNTMGWYRQAPGKERELVAAITYSGGSTYYADSVKGRFTISRDNAKNTVYLQMNSLKPEDTAVYYCAAEGTTWYYDMDYWGQGTQVTVSS”, for which the “polyreactivity (PSR sort gate)” value is given as “low polyreactivity”.

Take “QVQLVESGGGLVQAGGSLRLSCAASGSTFVPYALGWYRQAPGKERELVAAITTSGGNTYYADSVKGRFTISRDNAKNTVYLQMNSLKPEDTAVYYCAADTFRRFDYWGQGTQVTVSS”: the “polyreactivity (PSR sort gate)” value is given as “low polyreactivity”. In the case of “QVQLVESGGGLVQAGGSLRLSCAASGSTFVPYAMGWSSQAPGKERELVADISWSGGSTYYADSVKVRFTISRDNAKNTVYLQMNSLKPEDTAVYYCAARSIYKSKYDYWGQGTQVTVSS”, the “polyreactivity (PSR sort gate)” value is listed as “high polyreactivity”. With “QVQLVESGGGLVQAGGSLRLSCAASGSTFVPYAMGWYRQAPGKERELVAAISGTGGRTSYADSVKGRFTISRDNAKNTVYLQMNSLKPEDTAVYYCAAADGIYARYFFSRFPRFDYWGQGTQVTVSS” the entry was “low polyreactivity”; with “QVQLVESGGGLVQAGGSLRLSCAASGSTFVPYAMGWYRQAPGKERELVAGITFSGGSTYYADSVKGRFTIPRDNAKNTVYLQMNSLKPEDTAVYYCARAGGYPLSRYGYWGQGTQVTVSS”, “high polyreactivity”. In the case of “QVQLVESGGGLVQAGGSLRLSCAASGSTFVPYAMGWYRQAPGKERELVAVITRGSTNYADSVKGRFTISRDNAKNTVYLQMNRLKPEDTAVYYCAVDVARGVLDYSFDSWGQGTQVTVSS”, the “polyreactivity (PSR sort gate)” value is reported as “high polyreactivity”.

For “QVQLVESGGGLVQAGGSLRLSCAASGSTFVQYAMGWYRQAPGKERELVAAITSGGRTNYADSVKGRFTISRDNAKYTVYLQMNSLKPEDTAVYYCAARYGSNSPRGYEYYYWGQGTQVSVSS”, the “polyreactivity (PSR sort gate)” value is “low polyreactivity”. With “QVQLVESGGGLVQAGGSLRLSCAASGSTFVQYAMGWYRQAPGKERELVAAITSGGRTNYADSVNGRFTISRDNAKNTVYLQMNSLKPEDTAVYYCAARYGSNSPRRYEYYYWGQGTQVTVSS” the entry was “low polyreactivity”; with “QVQLVESGGGLVQAGGSLRLSCAASGSTFVQYVMGWYRQAPGKERELVAAISSSGGSTYYADSVKGRFTISRDNAKNTVYLQMNSLKPEDTAVYDCAARRLPRPWTSTSDYWGQGTQVTVSS”, “high polyreactivity”.
